Tests used:
Details in all cases: 20 nM; 72 h
[1] = system: MCF10A; assay: percent viability (nuclei count relative to siNT); higher = more viable cells
Experimental: (§1)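 After 72 h, cells were fixed and stained with Hoechst and anti-fibrillarin, and nucleoli per nucleus were counted with CellProfiler. Values are plate-adjusted percent effect for the one-nucleolus and 5+ nucleoli phenotypes, normalised to siNT (0%) and to the positive controls siNOL11 or siKIF11 (100%), as the mean of biological triplicates. Percent viability is the nuclei count relative to siNT.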

[2] = system: MCF10A; assay: 5+ nucleoli phenotype percent effect (relative to siNT 0% and siKIF11 100%); higher = more cells with five or more nucleoli
Experimental: as §1

[3] = system: MCF10A; assay: one-nucleolus phenotype percent effect (relative to siNT 0% and siNOL11 100%); higher = more cells with one nucleolus (ribosome biogenesis inhibition)
Experimental: as §1

Sequence	percent viability [1] [%]	5+ nucleoli phenotype percent effect [2] [%]	one-nucleolus phenotype percent effect [3] [%]
UACCCUGUAGAACCGAAUUUGUG [hsa-miR-10b-5p]	30.6	-26.1	25.8
AGCUGAGCUCCAUGGACGUGCAGU [hsa-miR-4663]	67	16.3	-21.4
CUCACUGAACAAUGAAUGCAA [hsa-miR-181b-3p]	61.5	22	-19.6
UCUGUGCUACUGGAUGAAGAGU [hsa-miR-7157-3p]	92.3	36.4	-22.7
AUGGGGUGAGAUGGGGAGGAGCAGC [hsa-miR-6812-5p]	23.7	-19.9	12.2
CUUAUAUCAGAGGCUGUGGG [hsa-miR-6083]	40.8	-34.4	28.6
CUCCUACAUAUUAGCAUUAACA [hsa-miR-155-3p]	119	6.71	-5.11
UACUGCAUCAGGAACUGAUUGGA [hsa-miR-217]	62.9	1.56	0.807
CUGGGCCCGCGGCGGGCGUGGGG [hsa-miR-6724-5p]	74.9	19.6	-9.05
CGCCUCUUCAGCGCUGUCUUCC [hsa-miR-2682-3p]	75.9	24	-7.1
AAAGCGCUUCCCUUCAGAGUG [hsa-miR-518e-3p]	48.9	-27.4	9.91
GUGGGCGGGGGCAGGUGUGUG [hsa-miR-1228-5p]	64.8	15.3	-5.58
CCCAGAUAAUGGCACUCUCAA [hsa-miR-488-5p]	50.9	32.8	-5.8
UUCAAGUAAUUCAGGAUAGGU [hsa-miR-26b-5p]	149	45.6	-8.67
UAAGGAGGGGGAUGAGGGG [hsa-miR-6891-5p]	51.8	-18.8	-7.18
CUGGUUUCACAUGGUGGCUUAG [hsa-miR-29b-2-5p]	43.4	7.64	-3.17
AUGGCCAAAACUGCAGUUAUUUU [hsa-miR-548s]	37.4	14.5	8.89
CAACCUCGAGGAUCUCCCCAGC [hsa-miR-3150b-5p]	48.1	20.8	-5.6
UGAGGGUGUCAGCAGGUGACG [hsa-miR-6804-5p]	11.7	0.774	19.5
GGGCUCACAUCACCCCAU [hsa-miR-4284]	40.5	8.32	-1.42
UCACCUGGCUGGCCCGCCCAG [hsa-miR-6765-3p]	63.1	30.1	-20.5
UCCUGCGUAGGAUCUGAGGAGU [hsa-miR-3193]	58.9	10.1	-18.1
AGGCUGGAGUGAGCGGAG [hsa-miR-4430]	12.7	-22	57.5
CUGGGAGAAGAGUGGUGAAGA [hsa-miR-6788-5p]	24.9	-4.55	10

Sequence	percent viability [1] [%]	5+ nucleoli phenotype percent effect [2] [%]	one-nucleolus phenotype percent effect [3] [%]
UAGGACUAGAUGUUGGAAUUA [hsa-miR-4759]	33.2	10.4	-7.56
AUGGAGCUGGAACCAGAUCAGGC [hsa-miR-6874-5p]	30.7	-35.8	41.9
AGCACACUGAGCGAGCGGAC [hsa-miR-8064]	44.2	-14.8	-0.792
CUGGGGGACGCGUGAGCGCGAGC [hsa-miR-4665-5p]	31.2	9.32	18.8
GCGACCCACUCUUGGUUUCCA [hsa-miR-551a]	81.6	39.1	-18
UAGCAGCACAUCAUGGUUUACA [hsa-miR-15b-5p]	26.5	-4.86	26.9
AGGGCCAGAGGAGCCUGGAGUGG [hsa-miR-4726-5p]	50.1	18.8	5.63
ACGGAUGUUUGAGCAUGUGCUA [hsa-miR-105-3p]	117	12.2	-17
AUUGUAGAACCUAAGAUUGGCC [hsa-miR-3674]	27.9	-29.6	40.2
CCUAGUAGGUGUCCAGUAAGUGU [hsa-miR-325]	58	25	-12.1
ACAGGUGAGGUUCUUGGGAGCC [hsa-miR-125a-3p]	62.4	-0.517	5.16
UGAGGCGGGGGGGCGAGC [hsa-miR-6087]	53.3	-13.4	15.3
CUCGGGAGGGCAUGGGCCAGGC [hsa-miR-6771-5p]	50.5	-1.93	-0.506
UGAGCCCUGUCCUCCCGCAG [hsa-miR-1233-3p]	63.8	7.25	-6.71
ACAGGGAGGAGAUUGUA [hsa-miR-4441]	18.5	-15.6	46.5
UGGUGCGGAGAGGGCCCACAGUG [hsa-miR-675-5p]	39	-14	29.5
ACCAGGCAAGAAAUAUUGU [hsa-miR-4645-5p]	87.5	5.96	-4.87
GAAGUUGUUCGUGGUGGAUUCG [hsa-miR-382-5p]	37.7	-18.5	27.9
AGCUGUCUGAAAAUGUCUU [hsa-miR-626]	50.2	25.1	2.9
AAAAGUACUUGCGGAUUU [hsa-miR-548av-5p]	77.9	9.21	-23.4
UGAUCAGGCAAAAUUGCAGACU [hsa-miR-4772-5p]	17	47.2	9.01
ACUGCCCCAGGUGCUGCUGG [hsa-miR-324-3p]	68	37.7	-7.87
CCUGCUGGUCAGGAGUGGAUACUG [hsa-miR-3692-5p]	32.9	6.3	2.08
UGGCGGGGGUAGAGCUGGCUGC [hsa-miR-6787-5p]	23.7	-19.2	30

— the supplement of paper PMC10899765
